Test system: PSA peptide M(GVGVP)60GDGQSSIYSQTEEQQDDEEG

In the case of Prostate Specific Antigen (PSA), active, the “optical density of 100 µM PSA peptide before and after 2 h with 20 ng/mL active PSA at 37 C” value is reported as “a distinct difference in the presence of active PSA, with an increase in optical density of the solution above the transition temperature after incubation with enzyme”.

From patent US20160348147
